Experimental findings from paper PMC5809530, “Resculpting the binding pocket of APC superfamily LeuT-fold amino acid transporters” (Cellular and Molecular Life Sciences: CMLS, 2017) are described below.

Substrate in series [1]: O=C(O)[C@@H]1CCCN1
Kind of series: cells, lysate or membranes. To be noted: transport Km, Na+-free, pH 5.5, about 22 °C, labelled compound, a second Km was measured by TEVC at -60 mV.

Substrate in series [2]: N[C@@H](CO)C(=O)O
Kind of series: cells, lysate or membranes. To be noted: transport Km, Na+-free, pH 5.5, about 22 °C, labelled compound, 0.01-20 mM serine.

B1: CG1139 (Drosophila melanogaster) (protein)
chain: MNDDIKTVTVYPTTLELTTPTKSANGSNDDYDPHQHRELKNPTTNFQTFAHFLKASVGTGVLAMPSAFAHAGYVNGTLLTLIIGSLALYCLHILIKCMYILCKRQRVPYVSFSQAMNLGLKQGPPWLRCLAPIAVPFVDGFLAFYHFGICCVYVVFIAESIKQLVDEYLVVWDVRIHMCIIIVPLLLIYSIKNLKLLAPFSSAANLLLLVGFGIILYYIFEELPPLSERDPFVAAGKLPTFFGTVLFALEAVGVILAIEENMATPKSFVGPCGILNSGMSIVLGLYVLLGFFGYWKYGNESEGSITLNIPQSEIPAQVVKVFFAITTWISYALQGYVTAHILWDKYLAKRFKETRQTFYELIFRAIIVLLTFGCAVAIPDLSVFLSLVGSFCLSILGLIFPVLLQICVQYTEGYGPFRIKLIINLLLLCFGIFGGVVGTYVSILDIIAVYK
As for B1, the Km in series [1] was found to be 1030 ± 180 µM; in series [2], 1310 ± 120 µM.

B2: PAT2 (SLC36A2) (Rattus norvegicus; F159I) (protein)
chain: MSVTKSAGSPQVAATVKLDLVSFPESAKKVQSQDPNPVNGSSSESSEKTKGITGFQTLVHLVKGNMGTGILGLPLAVKNAGILMGPLSLLVMGLIACHCMHILVRCAQRFCHRLNKPFMDYGDTVMHGLASSPNTWLQSHAHWGRHAVSFFLIVTQLGICCVYIVFLADNLKQVVEAVNSTTISCHKNETVVLTPTIDSRLYMLAFLPVLGLLVFIRNLRVLTIFSLLANVSMLVSLVIIGQYIIQGIPDPSQLPLVASWKTYPLFFGTAIFSFESIGVVLPLENKMKDARRFPTILSLGMSIITTLYIAIGALGYLRFGDDIKASITLNLPNCWLYQSVKLLYVVGILCTHALQFYVPAEIIIPLAVSQVSKRWALPVDLSIRLALVCVTCMLAILIPRLDLVLSLVGSVSSSALALIIPPLLEVTTYYGEGMSPLTITKDALISILGFMGFVVGTYQALDELIRSGNSLPLSNSTMFIQ
Regarding B2, the Km in series [2] was determined as 823 ± 202 µM.

The term Km denotes the substrate concentration at which the rate is half of its maximum.
